Patent CN102127167A
Several values for one entry are separate records, joined by “and”; a condition that tells them apart may be missing. Equal entries are not always repeated.

What was measured:
[1] = molecular target: 人TNFα (human) (UniProt P01375); assay: SPR (Biacore), TNFa coupled to the chip, antibody as analyte
[2] = molecular target: 人TNFα (human) (UniProt P01375); assay: cell-based or functional assay

UniProt P01375, sequence (P01375 77-233 limits assumed): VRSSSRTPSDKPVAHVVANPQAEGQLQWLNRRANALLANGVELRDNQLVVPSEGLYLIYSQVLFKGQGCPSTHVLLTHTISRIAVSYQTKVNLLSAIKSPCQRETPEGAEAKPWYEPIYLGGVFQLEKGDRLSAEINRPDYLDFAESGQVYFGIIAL

Kd [1]: 2.01 nM | IC50(pM), L929细胞保护试验 [2]: 1.37 pM and 2.52 pM and 2.32 pM | IC50(pM), L929细胞保护试验, 平均值 [2]: 2.42 pM
Substance: humira (antibody)
